In the RNAGym collection of RNA variant scans (doi:10.7554/elife.80360):

B1: HDV Ribozyme (parent)
chain: GGCCGGCAUGGUCCCAGCCUCCUCGCUGGCGCCGGCUGGGCAACAUUCCGAGGGGACCGUCCCCUCGGUAAUGGCGAAUGGGACCCA

Variants of: B1
Test: self-cleavage, relative activity (ratio to wild type); higher = more cleavage; co-transcriptional

In order of falling self-cleavage:
1. G53C U69G  1.14
2. C41U C61A  1.12
3. C26A A71G  1.11
4. A16U C85A  1.1
5. C15U G50A  1.08
6. U60C A87C  1.05
7. A8G C61G  1.04
8. U47A U69A  1.02
9. G50A U65A  1.02
10. G40A G68A  1.01
11. G53C U60G  1.01
12. C61A C64U  0.997
13. C48A U79G  0.982
14. C48A G54U  0.975
15. C48U C63U  0.969
16. A56U G76U  0.95
17. A45U C66G  0.919
18. C33U G53U  0.916
19. G55U C66G  0.901
20. G6U C26U  0.892
21. U47A C86U  0.88
22. U60A C66G  0.878
23. G54U A77G  0.878
24. C49A C57A  0.875
25. G53A A56U  0.873
26. U60G C61G  0.872
27. C57U C61U  0.843
28. A8C G17A  0.831
29. U9G A70G  0.831
30. G39U C66G  0.831
31. C26U C64U  0.819
32. G53U U65C  0.819
33. C44A U65C  0.804
34. A8C U47G  0.795
35. C24U C58U  0.772
36. C3G A56U  0.769
37. U46A C63U  0.763
38. C26A G53C  0.759
39. U46C G68C  0.739
40. U46A G67A  0.703
41. C66A U79A  0.696
42. C32U C86A  0.69
43. G50A G52U  0.688
44. U12G A45U  0.684
45. G35A C57G  0.684
46. C44G C49G  0.68
47. C44U C66A  0.677
48. C63A C64A  0.665
49. U46C C48U  0.655
50. G50A G68C  0.631
51. C30A C58A  0.623
52. C48G C58U  0.617
53. U27G G50C  0.6
54. G39U C63A  0.598
55. G59A C84G  0.597
56. C15A U27A  0.594
57. U23G G52U  0.585
58. C61G A83G  0.567
59. A42G G67U  0.565
60. G40U A43G  0.54
61. U47A C62G  0.54
62. G17U A87G  0.499
63. C41A A71C  0.499
64. C15A A77G  0.485
65. U46G C48G  0.475
66. G39A C66U  0.472
67. G17A C41U  0.46
68. A45U C84A  0.446
69. G67U G73C  0.437
70. G76C G82A  0.432
71. G52U G81U  0.429
72. A42U C85A  0.415
73. A8U G31A  0.405
74. G17C C63U  0.397
75. G39A A51C  0.389
76. C3A A71U  0.385
77. C41U U79G  0.369
78. A42C A56C  0.356
79. C22A A51C  0.341
80. G39C G68C  0.339
81. A8C A77C  0.317
82. C4U U46G  0.277
83. G2A C85A  0.268
84. C15G C36U  0.264
85. C14A C36U  0.259
86. G54U G80A  0.257
87. A8G G81U  0.256
88. C66A C75A  0.248
89. C30G G53C  0.237
90. C30A U46C  0.237
91. G38U G67A  0.237
92. G25A U69G  0.233
93. G34A C63A  0.231
94. G5A G76A  0.229
95. G38A G81A  0.227
96. G10C G80U  0.219
97. G6A U72C  0.219
98. G38C C86G  0.217
99. G25C G31U  0.214
100. G50U G74C  0.214
101. G74U C84U  0.213
102. C36U U79C  0.201
103. G73A A77U  0.189
104. C13U G81A  0.189
105. G11C C41A  0.185
106. U72G A77G  0.178
107. C21A U69A  0.175
108. C15U G34A  0.173
109. G25A G39A  0.172
110. C64G G74A  0.17
111. G28U A51U  0.166
112. G34U C85U  0.164
113. C36G U69C  0.155
114. G1C C85G  0.151
115. G11A C75U  0.144
116. G1C G29U  0.142
117. G31C G82C  0.134
118. C22G G68A  0.132
119. A8U A78C  0.128
120. G11C A83G  0.123
121. G1A A87C  0.121
122. G38A A87U  0.121
123. C49G A77C  0.119
124. G2U G82C  0.112
125. G28C C85G  0.111
126. U23G A83U  0.107
127. C24A C32A  0.106
128. U27G C33G  0.104
129. G5C G81A  0.104
130. C19A C62G  0.104
131. G29C C58U  0.104
132. C3G G39U  0.0989
133. G6A G10U  0.0963
134. G6U A42U  0.095
135. U20C C26G  0.0923
136. G2C C66A  0.0913
137. G10C C18A  0.0906
138. G5U C32A  0.0875
139. G29U A71U  0.0831
140. C14G G38A  0.0831
141. C13U A43C  0.0791
142. G28U G29A  0.0755
143. C18U C36A  0.0739
144. G17U G31U  0.0723
145. C3A U72G  0.0712
146. U20A G80A  0.0712
147. G5U G73A  0.0665
148. G2U G55U  0.0654
149. C13A G80U  0.0654
150. C13A G17A  0.0639
151. G2U G39U  0.0543
152. G2C C33A  0.0528
153. C33G G80U  0.0528
154. C14G U37A  0.0489
155. G2C G76U  0.0455
156. C4A U23G  0.0449
157. G5A C30G  0.0426
158. A77C G80A  0.0378
159. G2A C33G  0.0378
160. C19G G67C  0.0287
161. G10U C18A  0.0175
162. C7A C22U  0
163. C4G C7A  0
164. C7A U20A  0
165. C7A C32G  0
166. G1C C84G  0
167. G1A C57U  0
